In patent US20170095575A1 (BIOMED VALLEY DISCOVERIES, published 2017):
Positions count from the first letter of the chain named. Each block holds one binder with its values, some of them ahead of it.

What was measured:
[1] = target: T1, mTEM8-Fc (UniProt Q9CZ52 31-319, limits assumed); experiment: Biacore affinity measurement of Fab
T1 construct: not shown: Fc part
T1 sequence (looked up): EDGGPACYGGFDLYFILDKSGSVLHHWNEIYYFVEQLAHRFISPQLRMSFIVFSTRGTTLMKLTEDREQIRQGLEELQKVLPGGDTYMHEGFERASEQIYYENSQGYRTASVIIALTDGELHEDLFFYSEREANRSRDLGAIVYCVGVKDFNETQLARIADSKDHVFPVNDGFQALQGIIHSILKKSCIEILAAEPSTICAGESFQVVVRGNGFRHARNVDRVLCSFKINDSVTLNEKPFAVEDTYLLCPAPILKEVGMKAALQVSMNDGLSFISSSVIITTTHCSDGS

[2] = target: T2, hTEM8-AP (Homo sapiens, UniProt Q9H6X2 33-321); experiment: Biacore affinity measurement of Fab
T2 sequence: T1 sequence (looked up) with R40K, S104R, A241S

- Kd [1]: 0.0526 nM
- koff [1]: 8.94e-05 s⁻¹
- kon [1]: 1.7e+06 M⁻¹ s⁻¹
- Kd [2]: 0.0591 nM
- koff [2]: 0.00018 s⁻¹
- kon [2]: 3.05e+06 M⁻¹ s⁻¹
B1: M825 anti-TEM8 fragment antigen-binding (Fab) (Fab, V domains shown)
VH: QVQLVQSGAEVKKPGTSVKVSCKVPGYTFSSYAISWVRQAPGQGLEWMGGIIPIFGTTNYAQKFQGRVTITGEESTSTVYMELSSLRSEDTAVYYCARDTDYMFDYWGQGTLVTVSS
VL: SSELTQDPVVSVALGETVSITCQGDNLRDFYASWYQQKPGQAPLLVMYGKNRRPSGIPDRFSGSTSGNTLSLTITGAQAEDEADYYCSSRDNSKHVVFGGGTKVTVL
notes: also called M825 Fab

- Kd [1]: 3.74 nM
- koff [1]: 0.0029 s⁻¹
- kon [1]: 775000 M⁻¹ s⁻¹
- Kd [2]: 1.57 nM
- koff [2]: 0.000953 s⁻¹
- kon [2]: 607000 M⁻¹ s⁻¹
B2: M830 anti-TEM8 fragment antigen-binding (Fab) (Fab, V domains shown)
VH: EVQLVESGGGVVQPGRSVRLSCAASGFTFSTYTMHWVRQAPGKGLEWVAIISNDGSNKYYADPVRGRFTISRDNSKNTLYLQMNSLRAEDTAVYYCVRGSSWYRGNWFDPWGQGTLVTVSS
VL: DIQMTQSPSSLSASVGDRVTIACRASQTISRYLNWYQQKPGKAPKLLIYAASSLQSGVSSRFSGSGSGTEFTLTISSLQPEDFATYFCQQTYSPPITFGQGTRLEIKR
notes: also called M830 Fab
